Data set [1] relates to HeLa Kyoto. Nature of the data set: solubility in G1/S (NP-40 vs SDS abundance) (log2 ratio); higher = more soluble. The conditions noted are these: cell cycle stage: G1/S.
Data set [2] deals with HeLa Kyoto. Nature of the data set: melting temperature (median over replicates), in situ; higher = more thermally stable.
Data set [3] deals with HeLa Kyoto. Nature of the data set: thermal stability score vs G1/S (z-score of summed log2 fold changes over temperatures); higher = more thermally stable than in G1/S.
Data set [4] relates to HeLa Kyoto. Nature of the data set: solubility change mitosis vs G1/S (difference of NP-40 vs SDS log2 ratios) (log2 ratio difference); higher = more soluble in mitosis.
Where [5] appears, read: cell cycle stage: early G1 (4.5 h after nocodazole release).

The values that follow come from the supplement of paper PMC5998384.
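For melting temperature (median over replicates), in situ in this document: HeLa Kyoto cells synchronized by double thymidine or nocodazole block, proteins quantified by TMT10plex mass spectrometry, three independent biological replicates.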
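For solubility change mitosis vs G1/S (difference of NP-40 vs SDS log2 ratios) in this document: synchronized HeLa Kyoto cells (double thymidine block for G1/S, nocodazole release for mitosis), protein amounts in NP-40 versus SDS lysates quantified by mass spectrometry, three biological replicates.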
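For solubility in G1/S (NP-40 vs SDS abundance) in this document: HeLa Kyoto cells arrested at G1/S by double thymidine block, proteins quantified by TMT10plex mass spectrometry in mild NP-40 versus SDS extracts, three biological replicates.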
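For thermal stability score vs G1/S (z-score of summed log2 fold changes over temperatures) in this document: synchronized HeLa Kyoto cells, proteins quantified by TMT10plex mass spectrometry, three biological replicates, mitosis taken 0.5 h after nocodazole release, G1/S directly after double thymidine block.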

For “MAAAAVAAAAAAAAAASLQVLEMESMETAAAGSAGLAAEVRGSGTVDFGPGPGISAMEASGGDPGPEAEDFECSSHCSELSWRQNEQRRQGLFCDITLCFGGAGGREFRAHRSVLAAATEYFTPLLSGQFSESRSGRVEMRKWSSEPGPEPDTVEAVIEYMYTGRIRVSTGSVHEVLELADRFLLIRLKEFCGEFLKKKLHLSNCVAIHSLAHMYTLSQLALKAADMIRRNFHKVIQDEEFYTLPFHLIRDWLSDLEITVDSEEVLFETVLKWVQRNAEERERYFEELFKLLRLSQMKPTYLTRHVKPERLVANNEVCVKLVADAVERHALRAENIQSGTCQHPTSHVSLLPRYGQNMDVIMVIGGVSEGGDYLSECVGYFVDEDRWVNLPHIHNHLDGHAVAVTESYVYVAGSMEPGFAKTVERYNPNLNTWEHVCSLMTRKHSFGLTEVKGKLYSIGGHGNFSPGFKDVTVYNPELDKWHNLESAPKILRDVKALAIEDRFVYIAARTPVDRDTEDGLKAVITCYDTETRQWQDVESLPLIDNYCFFQMSVVNSNFYQTASCCPKSYCLENEEAVRKIASQVSDEILESLPPEVLSIEGAAICYYKDDVFIIGGWKNSDDIDKQYRKEAYRYCAERKRWMLLPPMPQPRCRATACHVRIPYRYLHGTQRYPMPQNLMWQKDRIRQMQEIHRHALNMRRVPSSQIEC [KLHL11]”, in the data set with HeLa Kyoto [1], the “solubility in G1/S (log2)” value is -0.226. Further, the melting temperature in the data set with HeLa Kyoto [2] (cell cycle stage: G1/S) amounted to 51.8 °C; in the data set with HeLa Kyoto [2] (cell cycle stage: mitosis), 50.7 °C. Besides, the thermal stability score with HeLa Kyoto [3] (setting [5]) was found to be 0.384; in the data set with HeLa Kyoto [3] (cell cycle stage: mitosis), 0.29. For the same sequence, in the data set on HeLa Kyoto [4], the “solubility change mitosis (log2)” value is -0.089.

“MAAAEPSPRRVGFVGAGRMAGAIAQGLIRAGKVEAQHILASAPTDRNLCHFQALGCRTTHSNQEVLQSCLLVIFATKPHVLPAVLAEVAPVVTTEHILVSVAAGVSLSTLEELLPPNTRVLRVLPNLPCVVQEGAIVMARGRHVGSSETKLLQHLLEACGRCEEVPEAYVDIHTGLSGSGVAFVCAFSEALAEGAVKMGMPSSLAHRIAAQTLLGTAKMLLHEGQHPAQLRSDVCTPGGTTIYGLHALEQGGLRAATMSAVEAATCRAKELSRK [PYCRL]”: in the data set with HeLa Kyoto [1], the “solubility in G1/S (log2)” value came to 0.155. Further, the figures for the melting temperature in the data set on HeLa Kyoto [2] (cell cycle stage: G1/S) and with HeLa Kyoto [2] (cell cycle stage: mitosis) were 53.5 °C and 55.3 °C, respectively. Moreover, the thermal stability score was -1.28 with HeLa Kyoto [3] (setting [5]) and -1.85 in the data set with HeLa Kyoto [3] (cell cycle stage: mitosis). In the data set with HeLa Kyoto [4], the “solubility change mitosis (log2)” value is 0.0528.

For the sequence “MAAAGAAATHLEVARGKRAALFFAAVAIVLGLPLWWKTTETYRASLPYSQISGLNALQLRLMVPVTVVFTRESVPLDDQEKLPFTVVHEREIPLKYKMKIKCRFQKAYRRALDHEEEALSSGSVQEAEAMLDEPQEQAEGSLTVYVISEHSSLLPQDMMSYIGPKRTAVVRGIMHREAFNIIGRRIVQVAQAMSLTEDVLAAALADHLPEDKWSAEKRRPLKSSLGYEITFSLLNPDPKSHDVYWDIEGAVRRYVQPFLNALGAAGNFSVDSQILYYAMLGVNPRFDSASSSYYLDMHSLPHVINPVESRLGSSAASLYPVLNFLLYVPELAHSPLYIQDKDGAPVATNAFHSPRWGGIMVYNVDSKTYNASVLPVRVEVDMVRVMEVFLAQLRLLFGIAQPQLPPKCLLSGPTSEGLMTWELDRLLWARSVENLATATTTLTSLAQLLGKISNIVIKDDVASEVYKAVAAVQKSAEELASGHLASAFVASQEAVTSSELAFFDPSLLHLLYFPDDQKFAIYIPLFLPMAVPILLSLVKIFLETRKSWRKPEKTD [PIGS]”, the “solubility in G1/S (log2)” value in the data set with HeLa Kyoto [1] stood at 0.0826. In addition, the figures for the melting temperature with HeLa Kyoto [2] (cell cycle stage: G1/S) and with HeLa Kyoto [2] (cell cycle stage: mitosis) were 52.6 °C and 53.1 °C, respectively. Besides, the thermal stability score with HeLa Kyoto [3] (setting [5]) is 2.4; with HeLa Kyoto [3] (cell cycle stage: mitosis), 4.4. In the data set on HeLa Kyoto [4], the “solubility change mitosis (log2)” value is -0.13.

In the case of “MAAAKVALTKRADPAELRTIFLKYASIEKNGEFFMSPNDFVTRYLNIFGESQPNPKTVELLSGVVDQTKDGLISFQEFVAFESVLCAPDALFMVAFQLFDKAGKGEVTFEDVKQVFGQTTIHQHIPFNWDSEFVQLHFGKERKRHLTYAEFTQFLLEIQLEHAKQAFVQRDNARTGRVTAIDFRDIMVTIRPHVLTPFVEECLVAAAGGTTSHQVSFSYFNGFNSLLNNMELIRKIYSTLAGTRKDVEVTKEEFVLAAQKFGQVTPMEVDILFQLADLYEPRGRMTLADIERIAPLEEGTLPFNLAEAQRQKASGDSARPVLLQVAESAYRFGLGSVAGAVGATAVYPIDLVKTRMQNQRSTGSFVGELMYKNSFDCFKKVLRYEGFFGLYRGLLPQLLGVAPEKAIKLTVNDFVRDKFMHKDGSVPLAAEILAGGCAGGSQVIFTNPLEIVKIRLQVAGEITTGPRVSALSVVRDLGFFGIYKGAKACFLRDIPFSAIYFPCYAHVKASFANEDGQVSPGSLLLAGAIAGMPAASLVTPADVIKTRLQVAARAGQTTYSGVIDCFRKILREEGPKALWKGAGARVFRSSPQFGVTLLTYELLQRWFYIDFGGVKPMGSEPVPKSRINLPAPNPDHVGGYKLAVATFAGIENKFGLYLPLFKPSVSTSKAIGGGP [SLC25A13]”, in the data set with HeLa Kyoto [1], the “solubility in G1/S (log2)” value came to 0.0358. The melting temperature with HeLa Kyoto [2] (cell cycle stage: G1/S) and with HeLa Kyoto [2] (cell cycle stage: mitosis) was 55.3 °C throughout. Further, the thermal stability score was -1.62 in the data set on HeLa Kyoto [3] (setting [5]) and -1.29 with HeLa Kyoto [3] (cell cycle stage: mitosis). Moreover, the “solubility change mitosis (log2)” value with HeLa Kyoto [4] was -0.142.
